Reference: patent US8889392B2, “Monolignol 4-O-methyltransferases and uses thereof” (Brookhaven Science Associates, LLC, priority 2010, dated 2014)

How the values were obtained:
[1] = Kinetic parameters for 4-O-methylation of coniferyl alcohol; type: biochemical; conditions: for fold increase of catalytic efficiency compared with the wild-type enzyme: coniferyl alcohol; for Km / Vmax: substrate coniferyl alcohol, 4-O-methylation
Procedure: E. coli transformants were inoculated in 96 well plates. Protein production was induced with 0.2 mM isopropyl β-D-1-thiogalactopyranoside, and the harvested cell cultures were lysed with 60 μl of BugBuster solution per well (Novagen). Enzymatic activity was screened using the lysates directly or after purification of the recombinant protein in a 96 well purification plate.
Screening was performed in a polypropylene microplate (Bio-Rad) containing 50 μl of the reaction in each well, 500 μM p-coniferyl-alcohol substrates, and 500 μM S-adenosyl-L-methionine augmented with (isotopic assay) or without (LC-MS assay) 0.005 μCi of [methyl-^14C]S-adenosyl-L-methionine, and 20 μl of lysates or purified protein (Ni^+ column eluate). (see Bhuiya, M. W. and Liu, C. J. (2010) J. Biol. Chem. 285:277-285 and its supplemental material).
To further optimize the catalytic efficiency of MOMT on the desired para-methylation of monolignols, based on the crystal structure of MOMT3, we identified additional amino acid residues that either directly contact or are proximate to the bound coniferyl alcohol, particularly the residues near the 3-methoxy-buried pocket. They are F130, A134, V138, L139, F157, Y161, N164, F166, Y168, H169, H173, F179, M183, N186, T319, L322, M323, A325, Y326, and N327. We then carried out the next round saturation mutagenesis on the recognized amino acid sites using MOMT3 as the parental template. […] The MOMT4 enzyme predominantly reacted with coniferyl and sinapyl alcohols, with preference for the latter, while the MOMT5 favors for coniferyl alcohol.

[2] = Kinetic parameters for 4-O-methylation of sinapyl alcohol; type: biochemical; conditions: for fold increase of catalytic efficiency compared with the wild-type enzyme: sinapyl alcohol; for Km / Vmax: substrate sinapyl alcohol, 4-O-methylation

Molecule | fold increase of catalytic efficiency compared with the wild-type enzyme [1] | Km [1] | Vmax [1] | fold increase of catalytic efficiency compared with the wild-type enzyme [2] | Km [2] | Vmax [2]
T133I-E165I-F175I-F166W: IEMT tetra mutant derived from MOMT3 (protein) MGSTGNAEIQIIPTHSSDEEANLFAMQLASAAVLPMALKAAIELDVLEIMAKSVPPSGYISPAEIAAQLPTTNPEAPVMLDRVLRLLASYSVVTYTLRELPSGKVERLYGLAPVCKFLTKNEDGVSLAPFLLIATDKVLLEPWFYLKDAILEGGIPFNKAYGMNIWDYHGTDHRINKVFNKGMSSNSTITMKKILEMYNGFEGLTTIVDVGGGTGAVASMIVAKYPSINAINFDLPHVIQDAPAFSGVEHLGGDMFDGVPKGDAIFIKWICHDWSDEHCLKLLKNCYAALPDHGKVIVAEYILPPSPDPSIATKVVIHTDALMLAYNPGGKERTEKEFQALAMASGFRGFKVASCAFNTYVMEFLKTA | ~200 fold | 117 ± 15 µM | 496 ± 8 nmol/mg/min | ~200 fold | 47 ± 8 µM | 147 ± 4 nmol/mg/min
T133L-E165F: IEMT double mutant variant (protein) MGSTGNAEIQIIPTHSSDEEANLFAMQLASAAVLPMALKAAIELDVLEIMAKSVPPSGYISPAEIAAQLPTTNPEAPVMLDRVLRLLASYSVVTYTLRELPSGKVERLYGLAPVCKFLTKNEDGVSLAPFLLLATDKVLLEPWFYLKDAILEGGIPFNKAYGMNFFDYHGTDHRFNKVFNKGMSSNSTITMKKILEMYNGFEGLTTIVDVGGGTGAVASMIVAKYPSINAINFDLPHVIQDAPAFSGVEHLGGDMFDGVPKGDAIFIKWICHDWSDEHCLKLLKNCYAALPDHGKVIVAEYILPPSPDPSIATKVVIHTDALMLAYNPGGKERTEKEFQALAMASGFRGFKVASCAFNTYVMEFLKTA |  | 280 ± 18 µM | 117 ± 3 nmol/mg/min |  | 382 ± 32 µM | 103 ± 4 nmol/mg/min
T133I-E165I-F175I-Y161F: IEMT tetra mutant derived from MOMT3 (protein) MGSTGNAEIQIIPTHSSDEEANLFAMQLASAAVLPMALKAAIELDVLEIMAKSVPPSGYISPAEIAAQLPTTNPEAPVMLDRVLRLLASYSVVTYTLRELPSGKVERLYGLAPVCKFLTKNEDGVSLAPFLLIATDKVLLEPWFYLKDAILEGGIPFNKAFGMNIFDYHGTDHRINKVFNKGMSSNSTITMKKILEMYNGFEGLTTIVDVGGGTGAVASMIVAKYPSINAINFDLPHVIQDAPAFSGVEHLGGDMFDGVPKGDAIFIKWICHDWSDEHCLKLLKNCYAALPDHGKVIVAEYILPPSPDPSIATKVVIHTDALMLAYNPGGKERTEKEFQALAMASGFRGFKVASCAFNTYVMEFLKTA |  | 197 ± 21 µM | 642 ± 24 nmol/mg/min |  | 206 ± 25 µM | 289 ± 12 nmol/mg/min
T133I-E165I-F175I-F166W-H169F: IEMT penta mutant (MOMT5) (protein) MGSTGNAEIQIIPTHSSDEEANLFAMQLASAAVLPMALKAAIELDVLEIMAKSVPPSGYISPAEIAAQLPTTNPEAPVMLDRVLRLLASYSVVTYTLRELPSGKVERLYGLAPVCKFLTKNEDGVSLAPFLLIATDKVLLEPWFYLKDAILEGGIPFNKAYGMNIWDYFGTDHRINKVFNKGMSSNSTITMKKILEMYNGFEGLTTIVDVGGGTGAVASMIVAKYPSINAINFDLPHVIQDAPAFSGVEHLGGDMFDGVPKGDAIFIKWICHDWSDEHCLKLLKNCYAALPDHGKVIVAEYILPPSPDPSIATKVVIHTDALMLAYNPGGKERTEKEFQALAMASGFRGFKVASCAFNTYVMEFLKTA | ~200 fold | 80 ± 6 µM | 440 ± 10 nmol/mg/min | ~200 fold | 37 ± 7 µM | 124 ± 7 nmol/mg/min
T133I-E165I-F175I-H169F: MOMT4 tetra mutant expressed in Arabidopsis (protein) MGSTGNAEIQIIPTHSSDEEANLFAMQLASAAVLPMALKAAIELDVLEIMAKSVPPSGYISPAEIAAQLPTTNPEAPVMLDRVLRLLASYSVVTYTLRELPSGKVERLYGLAPVCKFLTKNEDGVSLAPFLLIATDKVLLEPWFYLKDAILEGGIPFNKAYGMNIFDYFGTDHRINKVFNKGMSSNSTITMKKILEMYNGFEGLTTIVDVGGGTGAVASMIVAKYPSINAINFDLPHVIQDAPAFSGVEHLGGDMFDGVPKGDAIFIKWICHDWSDEHCLKLLKNCYAALPDHGKVIVAEYILPPSPDPSIATKVVIHTDALMLAYNPGGKERTEKEFQALAMASGFRGFKVASCAFNTYVMEFLKTA |  | 193 ± 25 µM | 793 ± 32 nmol/mg/min |  | 68 ± 11 µM | 408 ± 17 nmol/mg/min
T133I-E165I-F175I-Y326F-N327V: IEMT penta mutant derived from MOMT3 (protein) MGSTGNAEIQIIPTHSSDEEANLFAMQLASAAVLPMALKAAIELDVLEIMAKSVPPSGYISPAEIAAQLPTTNPEAPVMLDRVLRLLASYSVVTYTLRELPSGKVERLYGLAPVCKFLTKNEDGVSLAPFLLIATDKVLLEPWFYLKDAILEGGIPFNKAYGMNIFDYHGTDHRINKVFNKGMSSNSTITMKKILEMYNGFEGLTTIVDVGGGTGAVASMIVAKYPSINAINFDLPHVIQDAPAFSGVEHLGGDMFDGVPKGDAIFIKWICHDWSDEHCLKLLKNCYAALPDHGKVIVAEYILPPSPDPSIATKVVIHTDALMLAFVPGGKERTEKEFQALAMASGFRGFKVASCAFNTYVMEFLKTA |  | 196 ± 44 µM | 520 ± 25 nmol/mg/min |  | 340 ± 30 µM | 429 ± 15 nmol/mg/min
T133I-E165I-F175I-Y161W: IEMT tetra mutant derived from MOMT3 (protein) MGSTGNAEIQIIPTHSSDEEANLFAMQLASAAVLPMALKAAIELDVLEIMAKSVPPSGYISPAEIAAQLPTTNPEAPVMLDRVLRLLASYSVVTYTLRELPSGKVERLYGLAPVCKFLTKNEDGVSLAPFLLIATDKVLLEPWFYLKDAILEGGIPFNKAWGMNIFDYHGTDHRINKVFNKGMSSNSTITMKKILEMYNGFEGLTTIVDVGGGTGAVASMIVAKYPSINAINFDLPHVIQDAPAFSGVEHLGGDMFDGVPKGDAIFIKWICHDWSDEHCLKLLKNCYAALPDHGKVIVAEYILPPSPDPSIATKVVIHTDALMLAYNPGGKERTEKEFQALAMASGFRGFKVASCAFNTYVMEFLKTA |  | 196 ± 34 µM | 584 ± 37 nmol/mg/min |  | 219 ± 19 µM | 259 ± 8 nmol/mg/min
T133I-E165I-F175I-F166W-H169W: IEMT penta mutant derived from MOMT3 (protein) MGSTGNAEIQIIPTHSSDEEANLFAMQLASAAVLPMALKAAIELDVLEIMAKSVPPSGYISPAEIAAQLPTTNPEAPVMLDRVLRLLASYSVVTYTLRELPSGKVERLYGLAPVCKFLTKNEDGVSLAPFLLIATDKVLLEPWFYLKDAILEGGIPFNKAYGMNIWDYWGTDHRINKVFNKGMSSNSTITMKKILEMYNGFEGLTTIVDVGGGTGAVASMIVAKYPSINAINFDLPHVIQDAPAFSGVEHLGGDMFDGVPKGDAIFIKWICHDWSDEHCLKLLKNCYAALPDHGKVIVAEYILPPSPDPSIATKVVIHTDALMLAYNPGGKERTEKEFQALAMASGFRGFKVASCAFNTYVMEFLKTA |  | 127 ± 8 µM | 392 ± 9 nmol/mg/min |  | 67 ± 10 µM | 160 ± 12 nmol/mg/min
T133I-E165I-F175I-A325V: IEMT tetra mutant derived from MOMT3 (protein) MGSTGNAEIQIIPTHSSDEEANLFAMQLASAAVLPMALKAAIELDVLEIMAKSVPPSGYISPAEIAAQLPTTNPEAPVMLDRVLRLLASYSVVTYTLRELPSGKVERLYGLAPVCKFLTKNEDGVSLAPFLLIATDKVLLEPWFYLKDAILEGGIPFNKAYGMNIFDYHGTDHRINKVFNKGMSSNSTITMKKILEMYNGFEGLTTIVDVGGGTGAVASMIVAKYPSINAINFDLPHVIQDAPAFSGVEHLGGDMFDGVPKGDAIFIKWICHDWSDEHCLKLLKNCYAALPDHGKVIVAEYILPPSPDPSIATKVVIHTDALMLVYNPGGKERTEKEFQALAMASGFRGFKVASCAFNTYVMEFLKTA |  | 236 ± 50 µM | 446 ± 33 nmol/mg/min |  | 97 ± 7 µM | 214 ± 4 nmol/mg/min
T133I-E165I-F175I-H169M: IEMT tetra mutant derived from MOMT3 (protein) MGSTGNAEIQIIPTHSSDEEANLFAMQLASAAVLPMALKAAIELDVLEIMAKSVPPSGYISPAEIAAQLPTTNPEAPVMLDRVLRLLASYSVVTYTLRELPSGKVERLYGLAPVCKFLTKNEDGVSLAPFLLIATDKVLLEPWFYLKDAILEGGIPFNKAYGMNIFDYMGTDHRINKVFNKGMSSNSTITMKKILEMYNGFEGLTTIVDVGGGTGAVASMIVAKYPSINAINFDLPHVIQDAPAFSGVEHLGGDMFDGVPKGDAIFIKWICHDWSDEHCLKLLKNCYAALPDHGKVIVAEYILPPSPDPSIATKVVIHTDALMLAYNPGGKERTEKEFQALAMASGFRGFKVASCAFNTYVMEFLKTA |  | 220 ± 27 µM | 629 ± 26 nmol/mg/min |  | 89 ± 10 µM | 370 ± 11 nmol/mg/min
